The target in the data set is Vps34 (vacuolar protein sorting 34), endogenous in MEF cell lysate (UniProt Q6PF93).
Vps34 (vacuolar protein sorting 34), endogenous in MEF cell lysate, sequence (Q6PF93 whole entry): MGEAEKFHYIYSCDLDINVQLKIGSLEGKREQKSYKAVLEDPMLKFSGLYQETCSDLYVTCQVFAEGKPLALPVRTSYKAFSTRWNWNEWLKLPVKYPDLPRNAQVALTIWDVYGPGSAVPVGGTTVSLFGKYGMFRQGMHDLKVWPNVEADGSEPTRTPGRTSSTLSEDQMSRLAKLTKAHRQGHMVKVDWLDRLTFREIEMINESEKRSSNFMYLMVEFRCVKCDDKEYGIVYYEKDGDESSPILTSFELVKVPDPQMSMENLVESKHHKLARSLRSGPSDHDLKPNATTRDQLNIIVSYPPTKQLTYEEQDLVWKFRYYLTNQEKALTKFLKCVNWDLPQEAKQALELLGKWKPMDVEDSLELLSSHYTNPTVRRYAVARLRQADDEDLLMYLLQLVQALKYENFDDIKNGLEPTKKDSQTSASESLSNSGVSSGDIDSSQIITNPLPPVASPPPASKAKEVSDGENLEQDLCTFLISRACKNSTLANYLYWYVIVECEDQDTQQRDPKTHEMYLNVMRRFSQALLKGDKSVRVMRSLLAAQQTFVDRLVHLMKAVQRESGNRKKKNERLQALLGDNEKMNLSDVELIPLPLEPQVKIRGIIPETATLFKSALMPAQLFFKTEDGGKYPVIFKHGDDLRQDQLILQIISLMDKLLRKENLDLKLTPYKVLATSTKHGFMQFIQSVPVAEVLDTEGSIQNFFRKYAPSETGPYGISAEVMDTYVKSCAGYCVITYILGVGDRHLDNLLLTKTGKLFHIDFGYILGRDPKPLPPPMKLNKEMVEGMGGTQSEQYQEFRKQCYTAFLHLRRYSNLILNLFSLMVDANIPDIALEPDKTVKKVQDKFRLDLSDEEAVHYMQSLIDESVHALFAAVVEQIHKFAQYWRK

purified GST-LRS protein, sequence (chain, as listed by the source): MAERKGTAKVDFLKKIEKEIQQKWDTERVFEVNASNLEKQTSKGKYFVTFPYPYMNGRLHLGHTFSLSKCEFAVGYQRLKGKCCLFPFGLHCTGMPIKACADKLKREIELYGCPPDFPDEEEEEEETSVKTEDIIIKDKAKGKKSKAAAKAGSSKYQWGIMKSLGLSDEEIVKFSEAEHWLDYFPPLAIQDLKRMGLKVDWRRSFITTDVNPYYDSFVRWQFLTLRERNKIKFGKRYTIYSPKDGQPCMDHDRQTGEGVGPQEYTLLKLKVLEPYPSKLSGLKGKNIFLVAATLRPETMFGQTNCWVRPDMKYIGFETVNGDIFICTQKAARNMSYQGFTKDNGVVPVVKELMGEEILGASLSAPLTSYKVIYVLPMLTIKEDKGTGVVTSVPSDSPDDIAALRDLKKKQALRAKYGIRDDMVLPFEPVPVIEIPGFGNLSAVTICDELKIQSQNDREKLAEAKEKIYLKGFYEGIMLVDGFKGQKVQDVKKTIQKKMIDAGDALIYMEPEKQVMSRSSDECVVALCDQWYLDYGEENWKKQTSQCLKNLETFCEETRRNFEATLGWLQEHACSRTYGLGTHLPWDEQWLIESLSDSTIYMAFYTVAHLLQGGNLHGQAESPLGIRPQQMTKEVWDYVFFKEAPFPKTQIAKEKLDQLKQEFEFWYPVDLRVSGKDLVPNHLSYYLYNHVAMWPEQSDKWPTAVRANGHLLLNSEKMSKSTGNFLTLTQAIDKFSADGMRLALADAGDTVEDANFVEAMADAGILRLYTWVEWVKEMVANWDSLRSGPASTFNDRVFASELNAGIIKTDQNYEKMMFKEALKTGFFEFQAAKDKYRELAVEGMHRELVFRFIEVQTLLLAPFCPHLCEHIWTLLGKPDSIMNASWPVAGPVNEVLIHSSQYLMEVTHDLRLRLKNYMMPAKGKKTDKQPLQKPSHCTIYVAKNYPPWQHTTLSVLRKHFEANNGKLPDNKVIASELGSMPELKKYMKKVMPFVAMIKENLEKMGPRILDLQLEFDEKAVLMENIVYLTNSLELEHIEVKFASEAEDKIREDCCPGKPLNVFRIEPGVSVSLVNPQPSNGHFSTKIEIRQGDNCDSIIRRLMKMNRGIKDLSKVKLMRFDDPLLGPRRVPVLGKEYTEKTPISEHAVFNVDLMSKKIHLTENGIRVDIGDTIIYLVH
GST-LRS mutation (F50A/Y52A), sequence (chain, as listed by the source F50A Y52A): as the sequence (chain, as listed by the source) above, with F50A, Y52A counted along it

For GST-LRS mutation (F50A/Y52A), the “activity of Vps34 (in vitro Vps34 lipid kinase assay)” value is “LRS mutation (F50A/Y52A) did not induce the activation of Vps34, regardless of the presence or absence of leucine stimulation”.

Consider purified GST-LRS protein, for which the “activity of Vps34 (in vitro Vps34 lipid kinase assay)” value is “the activity of Vps34 was increased by about 3 times compared to the GST control” and the “activity of Vps34 (in vitro Vps34 lipid kinase assay), with leucine” value is “the activity was further increased by leucine stimulation”.

These data come from patent US20200155655.
